Measured values published in the DeepSol protein solubility set.

test: soluble on expression in E. coli; label from the status in PepcDB or PDB records

Sequence	soluble on expression in E. coli
MGSDKIHHHHHHMQNPRRICVADPNHRLSQKRFTRNSRDIFICPDCGCIMADVDFDHDQYESGDYYTMQHKTVQSIEEVWGFRWRYILDQILKINGRSSLLDVGAGNGYFVALASREFSFDASGLEISQEEVQFAADVLNIGLIREDLTQHNLDYDVVTCLNVLEHVVDPQLFLSHLVNRVKPGGLLVITTPNPACIHRKVKGLKNWNMIAPPHHINLFTKESLYILLMRYGLIQLDYQTISTYVNFVRGFDTENLLLRRLFFNLLKIFDLGADHFFIVKKPSQC	not soluble
MGSDKIHHHHHHMHWRGEYSCLSDSWRVSTQEDGGRLQMLTFRSARPEDEDALYAISLATGDAGQDATPLYNDGRMVGHIYSVPYLRLWPDAVFVAEDEEGVCGYIAGALDTVLHEQRLEQEWWPHLRALYPDPGGDPQTWDADQRRAHFIHHPRNTPSWLTDPFPAHIHMNLLPRTQGKGGGTRLLSRWLDMARQNNVYGIHLGASERNHAGMRFWETRGFKHLDSHETPGSVWFGMALE	not soluble
MAEVAPNSTLYINNLNEKIKIDELRKSLVAVFKQFGEIVSVMCFRTLKMRGQAHVIFKELPAASAAREALNGFPFYEKPMRIQFAREDSDVVAQEKGTYIKREPKYLSEKILKKPKSRKKENGGDGPAPPNKILFCTNLPDSATAEMLEIMFNQFAGLKDIRMVPNRPGIAFVEFDTDSLAIPARTTLNNFKISAEHTMRVDYAKK	soluble
MQVNFSSFLDNFFAMQVCREMTRNDVKFAISPQFLRISRHPHIP	not soluble
MGSDKIHHHHHHMTDLIYNDPDFVQFYDIENQDGRADFDYCVRLARDGGSVLDLGCGTGQLAAEMAQGCNVTGVDPASAMLDVARRRTGGDKVDWVVADARTVRLGRRFDLVLLTGHVFQVFLTDEDQRAVLRTIAEHLGPGGRFIFDTRNPAVEAWLEWTPQRSERMVEHPSLGTVRAWYDADWDAASAVVTYSTFYEIPGGRPILGAESKIAFPKKQDLAGMLDDAGLLVEQWLGDWQGEPYADTSPEIIPIGRLR	not soluble
MRLVDLRSDTLTRPTPAMRKAMAEAEVGDDAYGEDPTVNRLEALAAERLGFERALFLPSGTMANQVALLLHLPKELEAEARRYRKLLGGGWRQAGVLAAAGILALEEGPKHLRRDHEMARALAEGLFRLGLAVDLGAVETNMVYLEVEDPEGFLQGLRARGVLAGRVGGRVRFVTHRDLMDEDIPLALERVQDLLHSRPR	soluble
MAHHHHHHMTATPEMAEYCLRVIAQQISAPDDPSVPLPVIPKEDSACFVTLTTLPQERLRGCIGSLQPGDLKKDMRRLALAAAFQDSRFPKVKEEELPTLRCCFSLLHTFEPCAAWNDWEIGKHGLIADYDGYSATYLPSVAEEQGWDHRETLVSLLEKAGFEKPVTDHVLGKVRLTRYQVSKALKDYKDIIAS	not soluble
MFRTITSRLAFSVRQAEETVKPRIAYAQRSGRRIKEKVALMQAKRKEAGETGAPEKPGKFVLKTGKGTRDYGPAQSALRNSVLQTVTETFNRYGAETIDTPVFELRDVLMGKYGEEGGKLVYDLQDQGGELLSLRYDLTVPFARYLAMNKITNITRYQIAKVYRRDQPVMSRGRYREFYQCDFDIAGQYDLMLPEAECLGIVDELLTKLEIGEFFINLNHRLILEGMFAVSGIPAKDFKTICSSVDKLDKTPWEDVEQEMINEKFLTKEQTGKLGELVRFRELNSDLNNLELLEKMSQLPDLGQNDKFKKGAEELKVLIEYLNVDGVTTVRYEPSLARGLDYYTGAIYEAVAPKALEGTAVENSEDTAGQPVGVGSVAAGGRYDGLVKMFDSKANVPCCGVSFGIERLFAIMEARQKVAIRTTQTEVYVASAQKNLVRDRKKLVKMLRSAGIKTEMALKANPKLLTQFQYAEERRIPLAIVIGEQELKDGVVKLRNVVTRDEQTIKLDQLITAVRDTLAAL	not soluble
MGSDKIHHHHHHMVMYLENPGKLDRKFFTESILRYTGYRRPEDKVPPKNGVDTGIISIGNGKVMAVTTDPFYFDPVFGYEDSAWFAYHILASDITTAGVYPEYMTVDLNLPISISNEEIARMWKTVHEEAYKYKTSIITGHTARYANTGFPMVGGATMFGFTDDDKYVTTAMARPGDIMIMTKTAGIEAASLLTRIFPNHVKKNLGEDKYRYGFELFRKLSTVDEAIQAIEFGTRKAITSMHDATEGGLLGAVYEVAEASGNGVSIDKEAIHVDDYVKEIHSLFGIDPLRSISEGTLLMTIDPEYADEFMKRLTKSGIDSYVIGKMTTKDEGIKFKDGSEPIGEPEKDPFWYAVEKSMKMGLS	not soluble
MTIFEKNVIEFVTVAAEFCAFLERAEHMKRKAFVDTSLKILPLLYLKASLLPKCETIGDEAPETYVTEEIYEILRINLAGLMGEKDDYLDVFVQDMVYSDQPIKKSVSEDLADIYQDIKDFIFVFQLGLNETMNDSLAICQENFGLLWGQKLVNTLRALHDVKYLEHHHHHH	soluble
MGSDKIHHHHHHMNLRNTAVFKFLVLTLGIISCQAYAEDTVIVNDHDISAIKDCWQKNSDDDTDVNVIKSCLRQEYNLVDAQLNKAYGEAYRYIEQVPRTGVKKPDTEQLNLLKKSQRAWLDFRDKECELILSNEDVQDLSDPYSESEWLSCMIIQTNTRTRQLQLYRNSEDFYPSPLTRG	not soluble
MGSDKIHHHHHHMSDIESLGEAAGLFEEPEDFLPPPPKPHFAEYQRSHITKESKSDVKDIKLRLVGTSPLWGHLLWNAGIYTANHLDSHPELIKGKTVLELGAAAALPSVICALNGAQMVVSTDYPDPDLMQNIDYNIKSNVPEDFNNVSTEGYIWGNDYSPLLAHIEKIGNNNGKFDLIILSDLVFNHTEHHKLLQTTKDLLAEKGQALVVFSPHRPKLLEKDLEFFELAKNEFHLVPQLIEMVNWKPMFDEDEETIEVRSRVYAYYLTHEK	not soluble
MIMGFWNGVAKAAKAVGEGMIEAGNEHKALKMEYAEKSSEELHEIVKSDGFFKNSTREKSAAYAILKERGEV	not soluble
SENDSIELDDVANLMFYGEGQIGTNKQPFMFIFDTGSANLWVPSVNCDSIGCSTKHLYDASASKSYEKDGTKVEISYGSGTVRGYFSKDVISLGDLSLPYKFIEVTDADDLEPIYSGSEFDGILGLGWKDLSIGSIDPVVVELKKQNKIDNALFTFYLPVHDKHVGYLTIGGIESDFYEGPLTYEKLNHDLYWQIDLDIHFGKYVMQKANAVVDSGTSTITAPTSFLNKFFRDMNVIKVPFLPLYVTTCDNDDLPTLEFHSRNNKYTLEPEFYMDPLSDIDPALCMLYILPVDIDDNTFILGDPFMRKYFTVFDYEKESVGFAVAKNL	soluble
MAVREYQKKRRRERIFRAAMELFRNRGFQETTATEIAKAAHVSRGTFFNYYPYKEAVLLDYGSQLLAGLREEVRRLLAQGREPVEVLRHLFRVLAEGTAREKDLLLPMFYELLNPDPVRARAAFEALPLGDLIAEILKPLREQGVLRQDFSLERMGRTLADLYFLSALRWAAYTPGRDLAEELEKNLRLLLEGMLVREAPAPGGL	not soluble
MGSDKIHHHHHHMNEPHGERISVEIPGLERILRGGFLPGRSYLVSGGPGTGKTTLGLQYLASSADGNGLLISLGESERNLRADALRIGLSLDGTSVIDLSPGADAEPEAAYTLLEPWEAEGVDIRSRIGALLPDGPPERVFIDALSQLRQLMPDAYQFRKQVMGLLEYLNSAGTTVLYTAEQGSSADTDLRYLGDGILELEHRENRRILRVLKFRGSGFSEGEHTLRLGDHGMQVFERLMPGEHRRTYVAEELPCGIGELDRLSGGGITRGTVTIISGPTGVGKTSLGLQYMHEAARRGERSVVYTFEESIGTLRTRCEAIGIPVSDMMAKGSLSIDEVEPLHYSPDEFAWRVRTEVEQQGARMVMLDSLAGFRQSVRGDDITAHAHALCHYLSNMGVTVLLVNEQSAIAGEELRPSEDDINYLADTIVLLRYMELDGGLRKAIGILKKRTGDFEKTLREFQITREGLRVGAPLYGLQGILQGIPSKIATLDATE	not soluble
MVDNIEQQVYELVRPYAGTYLFNIKQVELTPEIDLDTDLSIDELEAEDLMNKFFEELNVERGNFRIETYFPNHPFSWHPFKKTEPVPVPDFTISMLIESAKAGKWLYD	not soluble
MSLRMRVGKFDYLNNFLPYYFLNEKVEIVEANPREMASMLLSGRIDYAPVPAFFYLKNRERLRHYEFCVASEGKVLSVVVVSRKKELDDGSIAVTPHSLTSVNLLKILLAERGMKNMLVEVNTAKASEMLELCPHALVIGDEAIKARMIYKVVMDLGEEWYELTSLPAVFGISASLKETNAEEMDRKILMATEEGYRRFDEVVRAAEKAFKMPREFLEEYFRTLKFRLSSKERRGLDEFEKYCRDYEGHHHHHH	soluble
